The numbers were not newly measured in patent publication US20100267610A1, “Polypeptide comprising a knottin protein moiety” (priority 2007, published 2010), which cites them from elsewhere.

Where no end group is shown, it is not given here.

This data set has as its target T1, PTH-1 receptor (P1R) (Homo sapiens, UniProt Q03431).
T1 sequence (Q03431 27-593): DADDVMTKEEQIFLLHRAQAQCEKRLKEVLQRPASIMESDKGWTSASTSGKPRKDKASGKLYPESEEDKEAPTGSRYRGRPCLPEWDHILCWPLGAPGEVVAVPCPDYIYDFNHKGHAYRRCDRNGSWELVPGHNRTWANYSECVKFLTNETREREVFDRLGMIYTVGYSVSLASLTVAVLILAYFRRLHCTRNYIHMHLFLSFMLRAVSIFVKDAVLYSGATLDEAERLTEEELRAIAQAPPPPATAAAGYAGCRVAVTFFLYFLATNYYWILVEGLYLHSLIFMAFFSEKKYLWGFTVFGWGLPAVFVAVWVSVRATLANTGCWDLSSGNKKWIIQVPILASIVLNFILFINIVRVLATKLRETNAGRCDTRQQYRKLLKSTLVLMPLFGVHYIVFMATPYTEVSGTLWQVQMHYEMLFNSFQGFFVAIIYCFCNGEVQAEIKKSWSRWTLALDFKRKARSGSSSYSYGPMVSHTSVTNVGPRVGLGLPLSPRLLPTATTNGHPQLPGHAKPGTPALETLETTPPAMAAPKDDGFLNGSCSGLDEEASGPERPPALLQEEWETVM
The note with it: Shimizu et al. 2000.

Take “PTH (1-14): shorter native analog of PTH, residues 1-14, from the literature (SVSEIQLMHNLGKH-NH2; UniProt P01270 32-45, looked up, fragment)”: the “activation of cAMP formation in cells” value is on record as “able to activate cAMP formation at high micromolar concentrations”.
